Target: the molecule itself
Assay: SEC

B1: PAE-EndA linker variant LPEI (6×His-PAE0789 fused through -Leu-Pro-Glu-Ile- to PAE2269) (enzyme, Pyrobaculum aerophilum)
chain: MDVLQEQVFKDLKSRGFKIIEQLDDKIFIAEKKERYLFYVMVEGVEVTIQTLLSVINMGETLSMPVVLALVSNDGTVTYYYVRKIRLPRNIYAEAVLPEIMIGYLRGLAVIVEDVEFARRLYKEGFYGRFLGYDKVKRDEVEKINAPLILGLYEALYLAEKGRLKVMGEDGREVAPEELAALGRERMRNFDEIYKIYKYFRDLGYVVKSGLKFGALFSVYEKGPGIDHAPMVVVFLEPDKGISATDITRGGRLSHSVRKTWTLATVLRQTGEVVLLGFGWARL
  stoichiometry N: 2
